Source: article PMC11834087, “Use of polyadenosine tail mimetics to enhance mRNA expression from genes associated with haploinsufficiency disorders”

Legend:
PABPC (PABPC1 RRM1-4) [1] = target: T1, PABPC (PABPC1 RRM1-4) (Homo sapiens, UniProt P11940 1-370); assay: EMSA; RNA 5 nM; 1x binding buffer: 100 mM NaCl, 5 mM MgCl2, 0.5 mM EDTA, 0.01% NP-40, 0.1 mg/mL BSA (from 10x stock), 5% glycerol from RNA mix plus glycerol/PBS from protein stock; pH not stated; 15 min at room temperature; 6% native gel with 0.01% Triton X-100 at 4 C; conditions: protein: commercial; tags: N-terminal 6xHis-SUMO; label: 3' Cy5
PABPC (PABPC1 RRM1-4) [2] = target: T1, PABPC (PABPC1 RRM1-4); assay: EMSA; RNA 10 nM; 1x binding buffer: 100 mM NaCl, 5 mM MgCl2, 0.5 mM EDTA, 0.01% NP-40, 0.1 mg/mL BSA (from 10x stock), 5% glycerol from RNA mix plus glycerol/PBS from protein stock; pH not stated; 15 min at room temperature; 6% native gel with 0.01% Triton X-100 at 4 C; conditions: protein: commercial; tags: N-terminal 6xHis-SUMO; label: 3' Cy5

T1 sequence (P11940 1-370): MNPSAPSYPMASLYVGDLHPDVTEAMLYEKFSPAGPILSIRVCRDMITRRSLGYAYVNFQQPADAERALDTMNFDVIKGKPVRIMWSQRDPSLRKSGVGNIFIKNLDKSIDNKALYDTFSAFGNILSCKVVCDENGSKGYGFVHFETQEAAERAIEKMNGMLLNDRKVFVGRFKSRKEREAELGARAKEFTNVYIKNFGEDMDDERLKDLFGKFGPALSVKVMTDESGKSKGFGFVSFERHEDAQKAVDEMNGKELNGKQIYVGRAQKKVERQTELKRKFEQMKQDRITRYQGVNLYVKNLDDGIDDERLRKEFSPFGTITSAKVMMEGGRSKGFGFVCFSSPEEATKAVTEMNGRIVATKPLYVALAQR

| Binder | Kd (PABPC (PABPC1 RRM1-4) [1]) [nM] | Kd (PABPC (PABPC1 RRM1-4) [2]) [nM] |
| --- | --- | --- |
| AAAAAAAAAAAAAAA (XNA, 2'-O-methyl and phosphorothioate on all 15 nucleotides) [fully modified poly(A)15] | 85 |  |
| AAAAAAAAAAAAAAA (ssRNA) [unmodified poly(A)15] |  | 110 |
| AAAAAAAAAAAAAAA (XNA, 2'-O-methyl and phosphorothioate on the first three nucleotides (mA*mA*mA*A12)) [3NT Mod poly(A)15] | 54 |  |
